Changes are numbered by the printed parent chain. Names and notes keep the numbering of the source. Values belong to the binder of their own block, whether it stands above or below them.
What was measured:
Test in all cases: cell-based or functional assay
[1] = target: T1, human PDL1 stably expressed on CHO cells (human, UniProt Q9NZQ7 19-290)
[2] = target: T1, human PDL1 stably expressed on CHO cells; remark: listed apart in the source
[3] = target: T1, human PDL1 stably expressed on CHO cells; remark: listed apart in the source
[4] = target: T1, human PDL1 stably expressed on CHO cells; remark: listed apart in the source

T1 sequence (Q9NZQ7 19-290 limits assumed): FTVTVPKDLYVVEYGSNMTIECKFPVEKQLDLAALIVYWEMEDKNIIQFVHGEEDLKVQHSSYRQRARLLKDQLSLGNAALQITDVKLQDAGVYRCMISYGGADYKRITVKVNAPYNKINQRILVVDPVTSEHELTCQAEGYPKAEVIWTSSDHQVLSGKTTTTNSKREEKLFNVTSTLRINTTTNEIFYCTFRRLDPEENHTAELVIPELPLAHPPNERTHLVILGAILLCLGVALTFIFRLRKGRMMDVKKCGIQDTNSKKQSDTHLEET

- EC50; NFAT luciferase reporter (RLU), whole cell PDL1/PD1 blocking assay [2]: 8.3 nM
B2: Humanized 10A4 GLEF VHH-Fc (antibody, human IgG1, V domains shown)
VH: EVQLVESGGGLVQPGGSLRLSCAASGGPFMSYAMGWVRQAPGKGLEFVAAIRWNGISTFYADSVKGRFTISRDNSKNTLYLQMNSLRAEDTAVYYCAAAQTIVTVPENYEYHYWGQGTQVTVSS

- EC50 (read off the curve); luminescence (RLU) of the NFAT reporter, PDL1 Blockade assay (CHO-PDL1) [middle panel] [1]: ~2 nM
B4: 5D8 VHH-Fc (antibody, human IgG1, V domains shown)
VH: QVQLVESGGGVVQPGRSLRLSCAASGGPFMSYAMGWFRQAPGKEREFVAAIRWSGQSTFYADSVKGRFTISRDNSKNTLYLQMNSLRAEDTAVYYCAAAQTIVTVPSNYEFDYWGQGTQVTVSS

- EC50 (read off the curve); luminescence (RLU) of the NFAT reporter, PDL1 Blockade assay (CHO-PDL1) [middle panel] [1]: ~2 nM
B5: 5G10 VHH-Fc (antibody, human IgG1, V domains shown)
VH: B4 VH with Q56A, S107E

- EC50 (read off the curve); luminescence (RLU) of the NFAT reporter, PDL1 Blockade assay (CHO-PDL1) [bottom panel] [1]: ~2 nM
- EC50; NFAT luciferase reporter (RLU), whole cell PDL1/PD1 blocking assay [2]: 7.37 nM
- EC50; NFAT luciferase reporter (RLU), whole cell PDL1/PD1 blocking assay; printed as 10A4 GLEF-N2S [3]: 0.824 nM
B6: Humanized 10A4 GLEF-N2S VHH-Fc (antibody, human IgG1, V domains shown)
VH: B2 VH with N54S

- EC50 (read off the curve); luminescence (RLU) of the NFAT reporter, PDL1 Blockade assay (CHO-PDL1) [middle panel] [1]: ~1 nM
B9: 3D5 VHH-Fc (antibody, human IgG1, V domains shown)
VH: B4 VH with Q56H, V103S, S107E

- EC50 (read off the curve); luminescence (RLU) of the NFAT reporter, PDL1 Blockade assay (CHO-PDL1) [middle panel] [1]: ~1 nM
- EC50; NFAT luciferase reporter (RLU), whole cell PDL1/PD1 blocking assay; printed as 10A4 Parental [2]: 3.79 nM
- EC50; NFAT luciferase reporter (RLU), CHO cells with human PDL1 co-incubated with Jurkat cells with human PD1 and NFAT reporter, blocking of PDL1/PD1 [4]: 0.242 nM
B11: 10A4 VHH-Fc (chimeric bivalent antibody) (antibody, human IgG1, V domains shown)
VH: QVKLEESGGGLVMAGGSLRLSCAASGGPFMSYAMGWFRQAPGKEREFVAAIRWNGISTFYADSVKGRFTVSRDNGKNMAFLQMNSLKPEDTAVYYCAAAQTIVTVPENYEYHYWGQGTQVTVSS

Further lines, the binder ahead of its results:

B1: 2F9 VHH-Fc (antibody, human IgG1, V domains shown)
VH: B4 VH with Q56I, S107E
- EC50 (read off the curve); luminescence (RLU) of the NFAT reporter, PDL1 Blockade assay (CHO-PDL1) [top panel] [1]: ~2 nM

B3: 1H2 VHH-Fc (antibody, human IgG1, V domains shown)
VH: B4 VH with Q56L, Q100P, S107E
- EC50 (read off the curve); luminescence (RLU) of the NFAT reporter, PDL1 Blockade assay (CHO-PDL1) [top panel] [1]: ~2 nM

B7: 1F6 VHH-Fc (antibody, human IgG1, V domains shown)
VH: B4 VH with Q56K, S107E, N108S
- EC50 (read off the curve); luminescence (RLU) of the NFAT reporter, PDL1 Blockade assay (CHO-PDL1) [top panel] [1]: ~2 nM

B8: 1E4 VHH-Fc (antibody, human IgG1, V domains shown)
VH: B4 VH with S54N, Q56I, S107E
- EC50 (read off the curve); luminescence (RLU) of the NFAT reporter, PDL1 Blockade assay (CHO-PDL1) [top panel] [1]: ~2 nM

B10: 1G12 VHH-Fc (antibody, human IgG1, V domains shown)
VH: B4 VH with Q56L, S107E, E110N
- EC50 (read off the curve); luminescence (RLU) of the NFAT reporter, PDL1 Blockade assay (CHO-PDL1) [middle panel] [1]: ~1 nM

— patent US20250320297A1 (SHANGHAI HENLIUS BIOTECH, published 2025)
